Source: US12018068B2, “Anti-O1 antibodies and uses thereof” (priority 2016, dated 2024)

Key:
[1] = test system: LPS (O1); test: LPS neutralization assay, RAW264.7-lux NF-κB luciferase reporter; type: cell-based, murine
Protocol: LPS neutralization was assayed by utilizing a murine RAW264.7 macrophage cell line carrying a firefly luciferase reporter gene under the control of an NF-κB-responsive promoter (RAW264.7-lux). Serially diluted antibody stocks were mixed with LPS in a 1:1 ratio and incubated at 4° C. for 1 hr. Antibody/LPS mixture was then diluted 1:10 into assay plates containing pre-seeded RAW264.7-lux cells (5e3 cells/well), which were then placed at 37° C./5% CO2 for 2.5 hours. Following incubations, Steady Glo (Promega) was then added to each well and incubated for another 20 min protected from light. The relative light units (RLUs) were then measured using an Envision Multilabel plate reader (Perkin Elmer). The percentage of inhibition was determined by comparing RLU derived from assays with no antibodies to RLU obtained from anti-K. pneumoniae mAbs and a negative control mAb. Activation of TLR4 receptors by bacterial LPS leads to downstream activation of the NF-κB transcriptional regulator. A decrease in induction of NF-κB-responsive luciferase activity was used to quantify LPS neutralization activity by LPS mAbs.

[2] = test system: K. pneumoniae strain Kp4211 lux; test: high throughput serum bactericidal assay (SBA), complement-dependent killing; type: cell-based, Klebsiella pneumoniae; conditions: for complement-dependent killing in SBA: FIG. 1B
Protocol: Peripheral blood mononuclear cells (PBMC) and sera were separated from buffy coats from healthy blood donors (N=567). PMBC were stored in liquid nitrogen whereas the plasma was stored at 4° C. To identify Klebsiella pneumoniae immune donors, all the available sera were tested for binding to Kp43816 and Kp4211 (LPS-O1 serotype), as well as to the unencapsulated mutant strain Kp43816ΔcpsB and the double mutant Kp43816ΔcpsBΔwaaL. […] In addition, all available sera were tested for their bactericidal activity in the presence of complement using a high-throughput serum bactericidal assay (SBA assay). Overnight cultures of luminescent K. pneumoniae strain 4211 (lux) were diluted in Muller Hinton II media to make OD600 to be 0.003. Equal volume of sera, 4211 lux, and baby rabbit serum (Cedarlane) were mixed in 384 well plates and incubated at 37° C. for two hours with shaking (250 rpm). The relative light units (RLUs) were then measured using an Envision Multilabel plate reader (Perkin Elmer). The percentage of killing was determined by comparing RLU derived from assays with no antibodies to RLU obtained from human sera.
The susceptibility of the K. pneumoniae strain Kp4211 lux to serum and antibody dependent killing was measured by high throughput serum bactericidal assay (SBA). Overnight cultures of luminescent K. pneumoniae strain 4211 (lux) were diluted in Muller Hinton II media to make OD600 to be 0.003. Equal volume of antibodies, 4211 lux, and baby rabbit serum (Cedarlane) were mixed in 384 well plates and incubated at 37° C. for two hours with shaking (250 rpm). The relative light units (RLUs) were then measured using an Envision Multilabel plate reader (Perkin Elmer). The percentage of killing was determined by comparing RLU derived from assays with no antibodies to RLU obtained from anti-K. pneumoniae mAbs and a negative control mAb.

[3] = test system: K. pneumoniae capsule mutant strain 43816ΔcpsB Lux; test: bioluminescent opsonophagocytic killing (OPK) assay with HL-60 cells; type: cell-based, Klebsiella pneumoniae; conditions: for induction of OPK killing: FIG. 1C
Protocol: (§1) PBMC donors were ranked based on their binding titers as well as their SBA and OPK activity. OPK assays were performed as described with modifications (Wang, Q. et al. Target-Agnostic Identification of Functional Monoclonal Antibodies Against Klebsiella pneumoniae Multimeric MrkA Fimbrial Subunit J Infect Dis. 2016 Jun. 1; 213(11):1800-8). Briefly, log phase cultures of luminescent K. pneumoniae capsule mutant strain 43816ΔcpsB (43816ΔcpsB Lux) were diluted to ˜2×10^6 cells/ml. Bacteria, diluted baby rabbit serum providing complement (Cedarlane, pre-absorbed with Kp43816ΔcpsB, 1:10), dimethylformamide (DMF) differentiated HL-60 cells, and sera were mixed in 384-well plates and incubated at 37° C. for two hours with shaking (250 rpm). The relative light units (RLUs) were then measured using an Envision Multilabel plate reader (Perkin Elmer). The percentage of killing was determined by comparing RLU derived from assays with no antibodies to RLU obtained from human sera.
as §1, with “OPK” for “PBMC donors were ranked based on their binding titers as well as their SBA and OPK activity. OPK”, “al., J. Infect.” for “al. Target-Agnostic Identification of Functional Monoclonal Antibodies Against Klebsiella pneumoniae Multimeric MrkA Fimbrial Subunit J Infect”, “213:1800-8 (2016)).” for “2016 Jun. 1; 213(11):1800-8).”, “antibodies” for “sera”, “anti-K. pneumoniae mAbs and a negative control mAb.” for “human sera.”

[4] = test system: purified O1 LPS; test: ELISA binding to purified O1 LPS; set-up: species or system Klebsiella pneumoniae; conditions: FIG. 1A
Protocol: Binding to purified O1 LPS was assayed by standard ELISA method. Briefly, ELISA plates (Nunc MaxiSorp) were coated with purified O1 LPS in PBS, pH 7.2, overnight at 4 C, followed by blocking the plates with PBS supplemented with 1% BSA (PBS-B). The coated plates were incubated with series dilutions of monoclonal antibodies for 1 h at room temperature. The plates were then washed with PBS containing 0.1% Tween-20 (PBS-T) before HRP-conjugated anti-human secondary antibodies were added for 1 hour followed by TMB TMB (3,3′,5,5′-Tetrametheylbenzidine) substrates. The absorbance of 450 nm was measured by microplate reader (Molecular Devices) and the data were plotted with Prism software.

[5] = test system: Kp1131115 wild type and Kp1131115ΔwbbYZ strain; test: FACS binding to Kp1131115 wild type and Kp1131115ΔwbbYZ; set-up: species or system Klebsiella pneumoniae; conditions: Kp1131115ΔwbbYZ vs wild type
From the text: Klebsiella pneumoniae wbbYZ gene locus encodes D-Galactan II domain in LPS structure, which defines O1 serotype over O2.

[6] = test system: γδ T cell recruitment, K. pneumoniae Kp8045 infection; test: flow cytometry of γδTCR+ T cells in lungs of infected mice; type: in vivo; conditions: for early γδ T cell recruitment, prophylaxis: 1e4 CFU Kp8045, FIG. 14A; for γδ T cell recruitment, treatment 1 hour post infection: 1e4 CFU Kp8045, FIG. 14B
Protocol: TLR4 signaling has been implicated in the recruitment and activation of γδ T cells, a key cell population in the innate immune defense of the mucosa. In order to examine the effect of LPS-neutralizing and LPS-non-neutralizing anti-O1 antibodies on γδ T cell recruitment, the percent of γδTCR^+ T cells was measured in the lungs of mice treated with anti-O1 antibodies and infected with K. pneumoniae (1e4 CFU Kp8045).

[7] = test system: K. pneumoniae (1e4 CFU Kp8045); test: survival of wild type and IL-17A−/− mice after lethal K. pneumoniae infection; type: in vivo, Klebsiella pneumoniae; conditions: prophylactic treatment
From the text: γδ T cells are major producers of IL-17, which activates key antimicrobial pathways and the phagocytic function of neutrophils. […] Wild type and IL-17A−/− mice were prophylactically treated with c-IgG, 54H7, or KPE33 and infected with a lethal number of K. pneumoniae.

B1: KPE33: human anti-K. pneumoniae O1 antigen antibody, VH SEQ ID NO:8, VL SEQ ID NO:9, isolated as IgG2 from donor #262 (antibody, V domains shown)
VH: EVQLVESGGALVQPGGSLRLSCAVSGFIFDDYAIHWVRRAPGKGLEWVSGIAWKSGATNYADSVKGRFAISRDNSKKSMYLQMNSLGTEDTALYYCTRRRASGDDTFYYFDYWGQGTLVTVSS
VL: EIVLTQSPATLSLSPGERATLSCRASQNVNTNLAWYQQRPGQSPRLLIYDASTRAAGLPARFSGSGSGTDFTLTISSLEPEDFAVYYCQQCTNWRYTFGQGTKLEIK
modifications: KPE33 VH Amino Acid Sequence; KPE33 VL Amino Acid Sequence
- LPS neutralization [1]: did not
- SBA Kp4211lux IC50 [2]: 64 ng/mL
- complement-dependent killing in SBA [2]: kill K. pneumoniae via complement-dependent killing
- complement-dependent killing (SBA) in primary screening ([2]; strain Kp4211 (LPS-O1)): mediate complement-dependent killing
- D Capsule OPK IC50 [3]: 2.5 ng/mL
- induction of OPK killing [3]: induced OPK killing
- binding to purified O1 LPS [4]: bound to purified O1 LPS
- effect of wbbYZ gene knockout on binding [5]: completely abolished the binding
- early γδ T cell recruitment, prophylaxis [6]: not
- γδ T cell recruitment, treatment 1 hour post infection [6]: did not inhibit recruitment
- survival of IL-17A−/− mice compared to wild type mice [7]: significant reduction in survival

B2: 54H7: mouse hybridoma anti-O1 antigen antibody (Ms IgG3), VH SEQ ID NO:47, VL SEQ ID NO:48 (antibody, V domains shown)
VH: QVHLQQPGSELVRPGASVTLSCKASGYTFTNYWMQWVKQRPGQGLEWIGNIYPGSGNTNYDEKFRSKATLTVDTSSSTAYMHLTSLTSEDSAVYYCTRNWNFDYWGQGTTLTVSS
VL: DIQMTQSPSSLSASLGERVSLTCRASQDIGSSLNWLQQEPDGTIKRLIYATSSLDSGVPKRFSGSRSGSEYSLTISSLEAEDFVDYYCLQHTDSPYTFGGGTKLELK
modifications: 54H7 VH; 54H7 VL Amino Acid Sequence
- LPS Neut (O1) IC50 [1]: <0.1 ng/mL
- LPS neutralization [1]: neutralized LPS
- SBA Kp4211lux IC50 [2]: 5.2 ng/mL
- complement-dependent killing in SBA [2]: kill K. pneumoniae via complement-dependent killing
- D Capsule OPK IC50 [3]: 2.5 ng/mL
- induction of OPK killing [3]: induced OPK killing
- binding to purified O1 LPS [4]: bound to purified O1 LPS
- effect of wbbYZ gene knockout on binding [5]: completely abolished the binding
- early γδ T cell recruitment, prophylaxis [6]: inhibited
- γδ T cell recruitment, treatment 1 hour post infection [6]: did not inhibit recruitment
- survival of IL-17A−/− mice compared to wild type mice [7]: No difference in survival
